# Laboratory results taken from US20190284268A1 (ABCENTRA, published 2019).
# Key:
# Fas (human) = Fas (human) (UniProt P25445); assay: cell-based or functional assay
# oxidized LDL (oxLDL) = oxidized LDL (oxLDL) (UniProt P04114 28-4563, oxidized LDL particle; kind of oxidation not stated for this assay); assay: cell-based or functional assay
# Sequence of oxidized LDL (oxLDL) (P04114 28-4563 limits assumed): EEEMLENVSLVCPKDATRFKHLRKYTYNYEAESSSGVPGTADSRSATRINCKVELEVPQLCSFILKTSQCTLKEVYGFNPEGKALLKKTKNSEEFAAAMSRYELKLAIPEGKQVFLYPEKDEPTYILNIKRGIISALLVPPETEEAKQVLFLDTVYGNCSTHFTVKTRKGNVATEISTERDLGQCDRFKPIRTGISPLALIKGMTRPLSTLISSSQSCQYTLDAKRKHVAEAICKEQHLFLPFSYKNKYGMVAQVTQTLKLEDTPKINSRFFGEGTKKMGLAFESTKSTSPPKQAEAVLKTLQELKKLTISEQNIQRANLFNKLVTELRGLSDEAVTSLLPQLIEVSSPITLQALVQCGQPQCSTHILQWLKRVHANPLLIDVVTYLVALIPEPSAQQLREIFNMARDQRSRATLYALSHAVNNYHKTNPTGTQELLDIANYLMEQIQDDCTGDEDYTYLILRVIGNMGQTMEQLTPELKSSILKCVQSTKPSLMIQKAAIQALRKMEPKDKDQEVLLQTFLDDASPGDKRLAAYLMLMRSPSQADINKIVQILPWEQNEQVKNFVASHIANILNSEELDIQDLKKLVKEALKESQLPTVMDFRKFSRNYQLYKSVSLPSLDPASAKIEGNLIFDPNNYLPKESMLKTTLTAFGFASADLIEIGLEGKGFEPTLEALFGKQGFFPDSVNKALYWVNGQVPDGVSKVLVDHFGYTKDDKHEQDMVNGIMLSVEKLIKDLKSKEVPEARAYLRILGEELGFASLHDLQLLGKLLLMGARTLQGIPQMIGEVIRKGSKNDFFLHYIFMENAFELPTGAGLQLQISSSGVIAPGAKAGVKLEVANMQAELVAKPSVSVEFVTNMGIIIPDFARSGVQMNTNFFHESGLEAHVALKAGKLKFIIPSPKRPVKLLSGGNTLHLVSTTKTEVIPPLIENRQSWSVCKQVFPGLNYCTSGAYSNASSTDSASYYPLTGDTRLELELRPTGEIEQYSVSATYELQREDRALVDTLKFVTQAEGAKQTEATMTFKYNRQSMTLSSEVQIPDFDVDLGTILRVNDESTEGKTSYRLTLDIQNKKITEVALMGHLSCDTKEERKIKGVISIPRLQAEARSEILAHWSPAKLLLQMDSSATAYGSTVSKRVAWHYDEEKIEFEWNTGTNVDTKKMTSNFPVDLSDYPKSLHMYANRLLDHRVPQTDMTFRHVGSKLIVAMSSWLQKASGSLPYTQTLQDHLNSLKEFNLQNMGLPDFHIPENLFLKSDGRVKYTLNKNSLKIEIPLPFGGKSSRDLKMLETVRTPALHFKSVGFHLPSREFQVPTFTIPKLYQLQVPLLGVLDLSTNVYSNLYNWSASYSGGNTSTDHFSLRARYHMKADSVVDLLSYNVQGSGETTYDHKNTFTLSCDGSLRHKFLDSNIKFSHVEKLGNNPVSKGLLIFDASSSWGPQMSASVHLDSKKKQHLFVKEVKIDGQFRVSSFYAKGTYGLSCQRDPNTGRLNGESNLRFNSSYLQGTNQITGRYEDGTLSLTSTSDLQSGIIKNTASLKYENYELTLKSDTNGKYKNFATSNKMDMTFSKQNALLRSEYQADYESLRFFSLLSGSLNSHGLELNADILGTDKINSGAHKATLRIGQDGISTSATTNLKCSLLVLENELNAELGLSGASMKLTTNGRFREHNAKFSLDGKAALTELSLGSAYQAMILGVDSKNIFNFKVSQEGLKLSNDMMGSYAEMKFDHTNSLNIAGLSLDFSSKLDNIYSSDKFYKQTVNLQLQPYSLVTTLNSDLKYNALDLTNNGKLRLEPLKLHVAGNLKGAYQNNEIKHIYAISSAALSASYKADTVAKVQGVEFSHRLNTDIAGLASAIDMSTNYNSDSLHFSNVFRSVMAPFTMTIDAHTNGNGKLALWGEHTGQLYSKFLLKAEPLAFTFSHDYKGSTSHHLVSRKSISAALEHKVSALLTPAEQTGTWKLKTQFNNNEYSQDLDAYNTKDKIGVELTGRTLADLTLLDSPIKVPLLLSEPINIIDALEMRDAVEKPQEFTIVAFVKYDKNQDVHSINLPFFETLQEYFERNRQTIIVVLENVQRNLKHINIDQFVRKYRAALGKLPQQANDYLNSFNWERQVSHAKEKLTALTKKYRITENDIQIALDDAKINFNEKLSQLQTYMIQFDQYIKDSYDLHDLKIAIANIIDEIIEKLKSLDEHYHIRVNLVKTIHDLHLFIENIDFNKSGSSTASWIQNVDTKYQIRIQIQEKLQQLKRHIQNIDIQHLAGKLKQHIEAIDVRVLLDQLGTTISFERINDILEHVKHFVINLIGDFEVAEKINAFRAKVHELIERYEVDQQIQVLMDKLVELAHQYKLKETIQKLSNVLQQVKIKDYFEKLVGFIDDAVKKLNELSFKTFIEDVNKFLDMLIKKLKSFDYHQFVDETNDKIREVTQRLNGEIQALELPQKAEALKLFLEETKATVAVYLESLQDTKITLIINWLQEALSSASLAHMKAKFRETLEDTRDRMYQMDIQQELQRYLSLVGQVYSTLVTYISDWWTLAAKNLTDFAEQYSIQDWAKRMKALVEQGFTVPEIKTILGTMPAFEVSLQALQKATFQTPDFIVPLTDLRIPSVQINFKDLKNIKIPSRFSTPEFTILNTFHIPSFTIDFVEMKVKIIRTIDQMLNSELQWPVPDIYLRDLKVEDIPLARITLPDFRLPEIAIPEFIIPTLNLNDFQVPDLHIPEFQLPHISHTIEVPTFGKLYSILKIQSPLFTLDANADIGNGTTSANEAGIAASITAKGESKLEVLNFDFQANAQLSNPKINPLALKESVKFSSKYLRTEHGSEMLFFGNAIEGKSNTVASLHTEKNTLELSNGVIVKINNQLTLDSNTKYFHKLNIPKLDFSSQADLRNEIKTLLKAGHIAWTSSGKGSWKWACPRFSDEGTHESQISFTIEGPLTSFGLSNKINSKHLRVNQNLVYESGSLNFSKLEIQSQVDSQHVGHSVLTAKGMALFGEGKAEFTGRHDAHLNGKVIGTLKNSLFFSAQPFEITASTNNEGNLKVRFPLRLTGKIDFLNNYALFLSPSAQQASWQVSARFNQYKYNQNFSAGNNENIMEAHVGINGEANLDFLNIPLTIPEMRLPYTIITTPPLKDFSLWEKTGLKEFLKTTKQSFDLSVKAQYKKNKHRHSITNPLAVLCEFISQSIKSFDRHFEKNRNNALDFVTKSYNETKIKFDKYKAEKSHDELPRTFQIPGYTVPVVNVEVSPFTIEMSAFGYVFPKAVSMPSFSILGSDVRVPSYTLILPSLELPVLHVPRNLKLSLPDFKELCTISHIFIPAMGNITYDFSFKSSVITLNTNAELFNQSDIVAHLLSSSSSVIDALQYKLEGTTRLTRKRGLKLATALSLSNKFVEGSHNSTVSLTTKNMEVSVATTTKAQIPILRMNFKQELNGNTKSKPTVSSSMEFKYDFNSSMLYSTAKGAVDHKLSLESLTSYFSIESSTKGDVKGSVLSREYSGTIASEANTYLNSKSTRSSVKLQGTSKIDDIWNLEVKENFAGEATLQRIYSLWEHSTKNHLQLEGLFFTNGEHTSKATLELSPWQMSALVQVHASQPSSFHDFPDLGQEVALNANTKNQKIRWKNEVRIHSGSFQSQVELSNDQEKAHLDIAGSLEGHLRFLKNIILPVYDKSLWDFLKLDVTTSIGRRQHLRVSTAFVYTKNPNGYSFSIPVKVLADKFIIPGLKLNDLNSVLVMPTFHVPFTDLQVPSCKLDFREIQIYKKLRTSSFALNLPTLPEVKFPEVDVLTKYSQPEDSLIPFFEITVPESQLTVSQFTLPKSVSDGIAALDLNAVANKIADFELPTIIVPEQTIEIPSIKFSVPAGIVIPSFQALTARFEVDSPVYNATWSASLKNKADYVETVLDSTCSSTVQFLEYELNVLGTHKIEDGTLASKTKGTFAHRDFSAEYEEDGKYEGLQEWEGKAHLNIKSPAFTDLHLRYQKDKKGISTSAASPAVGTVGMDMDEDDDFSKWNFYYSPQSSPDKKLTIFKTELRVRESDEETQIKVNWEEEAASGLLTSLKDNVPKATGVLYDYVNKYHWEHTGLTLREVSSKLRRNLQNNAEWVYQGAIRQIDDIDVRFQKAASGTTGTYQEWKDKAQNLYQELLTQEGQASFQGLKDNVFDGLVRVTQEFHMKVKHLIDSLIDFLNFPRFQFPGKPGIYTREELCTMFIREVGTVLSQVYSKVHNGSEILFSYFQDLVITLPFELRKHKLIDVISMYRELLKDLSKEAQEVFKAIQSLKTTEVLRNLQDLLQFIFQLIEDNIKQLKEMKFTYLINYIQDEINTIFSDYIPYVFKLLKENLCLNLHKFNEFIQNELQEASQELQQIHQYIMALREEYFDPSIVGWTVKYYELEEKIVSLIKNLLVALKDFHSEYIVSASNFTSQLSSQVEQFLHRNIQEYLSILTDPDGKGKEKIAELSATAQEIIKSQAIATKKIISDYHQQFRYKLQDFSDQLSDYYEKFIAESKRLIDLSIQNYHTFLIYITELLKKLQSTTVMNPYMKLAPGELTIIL
# Sequence of Fas (human) (P25445 26-335): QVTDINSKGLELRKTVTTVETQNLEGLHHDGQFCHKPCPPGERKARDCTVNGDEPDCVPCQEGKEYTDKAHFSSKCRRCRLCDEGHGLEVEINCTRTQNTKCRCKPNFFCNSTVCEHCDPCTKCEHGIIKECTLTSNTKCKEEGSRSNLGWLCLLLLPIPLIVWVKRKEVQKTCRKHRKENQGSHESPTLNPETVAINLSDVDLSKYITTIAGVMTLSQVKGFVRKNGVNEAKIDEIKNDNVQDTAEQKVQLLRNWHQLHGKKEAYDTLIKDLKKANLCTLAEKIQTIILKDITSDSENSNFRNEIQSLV
release of FAS from PBMCs of SLE patients (Fas (human)),IC50 for MCP-1 inhibition (oxidized LDL (oxLDL)),Molecule
73%,,soluble Fas ligand (from UniProt P48023 134-281)
,~10 nM,"orticumab (antibody, human IgG1, lambda, V domains shown) VH: EVQLLESGGGLVQPGGSLRLSCAASGFTFSNAWMSWVRQAPGKGLEWVSSISVGGHRTYYADSVKGRSTISRDNSKNTLYLQMNSLRAEDTAVYYCARIRVGPSGGAFDYWGQGTLVTVSS VL: QSVLTQPPSASGTPGQRVTISCSGSNTNIGKNYVSWYQQLPGTAPKLLIYANSNRPSGVPDRFSGSKSGTSASLAISGLRSEDEADYYCASWDASLNGWVFGGGTKLTVLG"
